Results published in patent US7317091.

The substances below were run against FcγRIIIa on human PBMC effector cells (human) (UniProt P08637) (assay: cell-based or functional assay).

Row | ADCC EC50, DoHH-2 targets, V158/F158 PBMCs [ng/mL] | ADCC Fold Improvement Over WT [fold] | ADCC log(EC50), DoHH-2 targets, V158/F158 PBMCs | Substance
1 | 3 | 3.3 | 0.49 log(ng/ml) | S239D/I332E alemtuzumab (antibody)
2 | 4 |  | 0.6 log(ng/ml) | V264I/I332E alemtuzumab (antibody)

These substances were tested against human FcγRIIb extracellular region, GST-tagged (human) (UniProt P31994) (assay: AlphaScreen competition).
Sequence of human FcγRIIb extracellular region, GST-tagged (human) (P31994 43-217): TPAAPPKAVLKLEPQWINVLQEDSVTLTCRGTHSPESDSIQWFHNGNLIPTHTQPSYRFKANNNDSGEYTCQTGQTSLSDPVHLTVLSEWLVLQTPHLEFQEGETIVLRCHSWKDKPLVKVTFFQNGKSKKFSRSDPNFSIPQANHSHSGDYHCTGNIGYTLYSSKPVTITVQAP

Row | FcγRIIb Fold [fold vs WT] | Substance
3 | 19.7 | S239D/I332E trastuzumab (antibody)
4 | 14.4 | S239D/V264I/I332E trastuzumab (antibody)
5 | 5.15 | S239N/S298A/I332E trastuzumab (antibody)

Each substance was assayed against human V158 FcγRIIIa extracellular region fused with glutathione S-transferase (GST) (human) (UniProt P08637) (assay: AlphaScreen competition).
Sequence of human V158 FcγRIIIa extracellular region fused with glutathione S-transferase (GST) (human) (P08637 17-208 F176V): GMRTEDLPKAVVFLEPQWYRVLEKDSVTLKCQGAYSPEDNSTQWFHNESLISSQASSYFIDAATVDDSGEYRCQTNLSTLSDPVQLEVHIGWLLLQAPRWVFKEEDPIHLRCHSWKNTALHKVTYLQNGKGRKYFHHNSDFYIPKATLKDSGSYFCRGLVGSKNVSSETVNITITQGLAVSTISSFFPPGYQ

Row | Substance | FcγRIIIa Fold [fold vs WT]
6 | E233D trastuzumab (antibody) | 0.85
7 | E283R trastuzumab (antibody) | 0.67
8 | E333T trastuzumab (antibody) | 0.78
9 | K274E trastuzumab (antibody) | 6.11
10 | K274Y trastuzumab (antibody) | 1.06
11 | N276E trastuzumab (antibody) | 0.87
12 | N276R trastuzumab (antibody) | 0.66
13 | N276S trastuzumab (antibody) | 0.41
14 | N276Y trastuzumab (antibody) | 0.56
15 | P230A trastuzumab (antibody) | 1.09
16 | P230A/E233D/I332E trastuzumab (antibody) | 1.87
17 | S239D/A330Y/I332E/L235D trastuzumab (antibody) | 7.04
18 | S239D/A330Y/I332E/V240I trastuzumab (antibody) | 28
19 | S239D/I332E alemtuzumab (antibody) | 56.1
20 | S239D/I332E/A330I trastuzumab (antibody) | 59.1
21 | S239D/V264I/I332E trastuzumab (antibody) | 36.6
22 | S239N/A330Y/I332E trastuzumab (antibody) | 14.2
23 | S239N/S298A/I332E trastuzumab (antibody) | 32.1
24 | S324R trastuzumab (antibody) | 0.71
25 | S324V trastuzumab (antibody) | 1.17
26 | S324Y trastuzumab (antibody) | 0.98
27 | V240I/V266I trastuzumab (antibody) | 1.72
28 | V264I/S298A/I332E trastuzumab (antibody) | 16.5
29 | V273I trastuzumab (antibody) | 0.79
30 | V302I trastuzumab (antibody) | 1.01
31 | V323I trastuzumab (antibody) | 0.83
32 | Y278E trastuzumab (antibody) | 0.9
33 | Y278W trastuzumab (antibody) | 0.41

Continued, values first:

Row | FcγRIIIa Fold [fold vs WT] | Substance
34 | 8.7 | E272Y trastuzumab (antibody)
35 | 1.06 | E318R trastuzumab (antibody)
36 | 0.75 | E333H trastuzumab (antibody)
37 | 1.11 | F275W trastuzumab (antibody)
38 | 1.09 | K274L trastuzumab (antibody)
39 | 1.41 | K274R trastuzumab (antibody)
40 | 1.41 | K274T trastuzumab (antibody)
41 | 1.43 | K326I trastuzumab (antibody)
42 | 1.88 | K326T trastuzumab (antibody)
43 | 0.92 | P230A/E233D trastuzumab (antibody)
44 | 64.1 | S239D/A330Y/I332E/K326E trastuzumab (antibody)
45 | 22.4 | S239D/A330Y/I332E/L234I trastuzumab (antibody)
46 | 17.7 | S239D/A330Y/I332E/V264T trastuzumab (antibody)
47 | 12.9 | S239N/A330L/I332E trastuzumab (antibody)
48 | 2.79 | T335D trastuzumab (antibody)
49 | 2.58 | T335R trastuzumab (antibody)
50 | 1.56 | T335Y trastuzumab (antibody)
51 | 1.87 | Y278T trastuzumab (antibody)
